Experimental data as given in patent US6951717.

target: viral gp41 (HIV-1 transmembrane protein) of HIV-1IIIB (HIV-1IIIB) (UniProt P04578); assay: cell-based or functional assay

Substance	Cell fusion (IC90)	HIV infectivity (IC90)
DP107 (SEQ ID NO:25), synthetic peptide corresponding to amino acids 558 to 595 of HIV-1LAI gp41	1000 nM	1000 nM
DP178 (SEQ ID NO:1), synthetic peptide corresponding to amino acids 638 to 673 of HIV-1LAI gp41	1 nM	80 nM
M41 (maltose binding protein fused to the extracellular domain of HIV-1 gp41, residues 540-686) (from UniProt P0AEX9 27-392; P03377 540-686)	> 50000 nM	> 16000 nM
M41-P (M41 with an Ile to Pro mutation at position 578) (from UniProt P0AEX9 27-392; P03377 540-686)	83 nM	66 nM
